Holding throughout (assay): equilibrium binding isotherms of eEF2 on ribosomes
Assay [1] deals with yeast ribosomes (salt-washed) with ribosomal protein L3 mutant S2T (S. cerevisiae) (UniProt P14126).
In assay [2] the target is wild-type yeast ribosomes (salt-washed), with wild-type ribosomal protein L3 (S. cerevisiae) (UniProt P14126).
The target in assay [3] is yeast ribosomes (salt-washed) with ribosomal protein L3 mutant S2K (S. cerevisiae) (UniProt P14126).
Assay [4] concerns the target yeast ribosomes (salt-washed) with ribosomal protein L3 mutant S2A (S. cerevisiae) (UniProt P14126).

The source of these data is publication PMC2577335.

Regarding “6 × His-tagged eEF2 (elongation factor 2) (from UniProt P32324 1-842) (natural protein)”, the Kd in assay [1] came out at 0.0207 µM; in assay [2], 0.0187 µM; in assay [3], 0.0204 µM; in assay [4], 0.0199 µM.

As a reminder, the Kd is the free concentration of one partner at which half of the binding sites on the other are occupied at equilibrium, for simple one-to-one binding.
